pKd: −log10 of the molar value. Square brackets hold non-standard residues; d marks the D form. Ends that are not written are not given here. Met(O) = CS(=O)CC[C@H](N)C(=O)O

What is called pKd is −log10 of the Kd, conventionally taken in molar units.

The target in one assay is T1, ROMK1 channel (Rattus norvegicus, UniProt P35560).
T1 construct: expressed in transfected cells; host or cells: Xenopus laevis oocytes (cRNA injection)
T1 sequence (P35560 1-391): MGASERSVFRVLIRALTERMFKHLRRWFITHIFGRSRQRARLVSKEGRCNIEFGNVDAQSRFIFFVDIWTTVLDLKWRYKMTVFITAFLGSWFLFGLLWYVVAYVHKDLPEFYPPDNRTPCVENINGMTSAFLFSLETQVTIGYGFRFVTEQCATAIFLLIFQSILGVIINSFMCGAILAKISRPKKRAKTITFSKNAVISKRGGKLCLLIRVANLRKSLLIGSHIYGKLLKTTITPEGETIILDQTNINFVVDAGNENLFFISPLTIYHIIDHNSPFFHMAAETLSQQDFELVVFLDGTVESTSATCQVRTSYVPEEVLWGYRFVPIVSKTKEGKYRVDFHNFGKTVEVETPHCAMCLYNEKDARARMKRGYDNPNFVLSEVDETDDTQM
Description: Two-electrode voltage clamp of wild-type ROMK1 channel in Xenopus oocytes. In kind it is cell-based. On the procedure:
Oocytes harvested from Xenopus laevis frogs were digested with collagenase (2 mg/mL) in a solution containing: NaCl, 82.5 mM; KCl, 2.5 mM; MgCl2, 1.0 mM; HEPES, 5.0 mM (pH 7.6) and were agitated on a platform shaker at a rate of 80 rpm for 90 minutes. The oocytes were then rinsed thoroughly with and stored in a solution containing: gentamicin, 50 μg/mL; NaCl, 96 mM; KCl, 2 mM; CaCl2, 1.8 mM; MgCl, 1 mM; HEPES, 5 mM (pH 7.6). Defolliculated oocytes were selected at least 2 hours after the collagenase digestion. To express channels, the corresponding cRNA was directly injected into oocytes. To express the GIRK1/4 channel, GIRK1 and GIRK4 cRNAs were co-injected with either M2 or M4 receptor cRNA. All injections were carried out at least 16 hours after the collagenase treatment. The injected oocytes were stored in an 18° C. incubator.
All three inward-rectifier K^+ channels, GIRK1/4, ROMK1, and IRK1, were studied using a two-electrode voltage clamp amplifier (Oocyte Clamp OC-725C, Warner Instruments Corp.). The resistance of electrodes filled with 3 M KCl were 0.2–0.4 M Ω. To elicit current through the channel, the membrane potential of oocytes was stepped to −80 mV (100–125 ms) and then to +80 mV (100–125 ms) from the holding potential of 0 mV. […] Tertiapin concentration was calculated using an extinction coefficient 6.1 mM^−1 cm^−1 at 280 nm wavelength. […]
For orientation: Two-electrode voltage clamp holds a large cell at a set potential and records current.

Assay [1] addresses T2, ROMK1 inward-rectifier K+ channel (Rattus norvegicus, UniProt P35560).
T2 sequence (P35560 1-391): T1 sequence (P35560 1-391)
As to conditions: literature values; read-out: Kd for block of ROMK1; cited from earlier work.

As to “oxidized form of tertiapin: tertiapin whose methionine residue M13 has become oxidized (ALCNCNRIIIPH[Met(O)]CWKKCGKK; disulfide (positions not given here); ends not checked; UniProt P56587 1-21, looked up)”, the “sensitivity / affinity of the ROMK1 channel, in words” value with ROMK1 channel is listed as “lower affinity than the non-oxidized form”.
For Δ-dendrotoxin, in assay [1], the pKd was 6.82.
